Test results: patent US20040241165A1 (Takeda / Millennium, published 2004)
No end group written: not given here.

Columns and labels:
[1] = target: human-type OT7T022 (hOT7T022) G protein-coupled receptor protein (human) (UniProt Q9GZQ6); assay: cell-based or functional assay
[2] = target: human-type OT7T022 (hOT7T022) G protein-coupled receptor protein (human) (UniProt Q9GZQ6); assay: binding inhibition: displacement of 125I-Tyr-hRFRP-3(8) from membrane fraction of human-type OT7T022-expressing CHO cells
[3] = target: T1, human-type OT7T022 (hOT7T022) G protein-coupled receptor protein (human, UniProt Q9GZQ6 1-430); assay: as above
T1 construct: Expressed on CHO cells (cAMP assays); also called human OT7T022 receptor
T1 sequence (Q9GZQ6 whole entry): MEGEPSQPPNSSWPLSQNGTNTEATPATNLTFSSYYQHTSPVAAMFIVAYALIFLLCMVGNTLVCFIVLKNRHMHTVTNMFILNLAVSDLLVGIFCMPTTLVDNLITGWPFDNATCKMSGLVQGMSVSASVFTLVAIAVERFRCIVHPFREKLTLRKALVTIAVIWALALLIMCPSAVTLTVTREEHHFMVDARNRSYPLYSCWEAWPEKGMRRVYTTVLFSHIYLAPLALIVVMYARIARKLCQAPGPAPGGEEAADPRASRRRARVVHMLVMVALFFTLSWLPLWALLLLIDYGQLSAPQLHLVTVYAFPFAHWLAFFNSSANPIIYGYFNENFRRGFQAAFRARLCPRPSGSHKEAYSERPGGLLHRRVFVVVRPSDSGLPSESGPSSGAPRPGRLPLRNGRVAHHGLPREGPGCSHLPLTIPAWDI
Method: An assay buffer [50 mM Tris-HCl, pH 7.5, 5 mM EDTA, 0.1% bovine serum albumin (Sigma), 0.5 mM PMSF (Wako Purechemical Industries), 20 μg/ml leupeptin (Peptide Institute, Inc.), 0.1 μg/ml pepstatin A (Peptide Institute, Inc.), 4 μg/ml E64 (Peptide Institute, Inc.) and 10 mM MgCl₂] was prepared. With this buffer, the membrane fraction from human-type OT7T022-expressing CHO cells was diluted to give a concentration of 1 μg/25 μl. […] Sample solutions prepared, NSB and the assay buffer were dispensed into polypropylene 96-well plates in quadruplicate as total 50 μl/well. […] Twenty-five microliter of the membrane fraction solution from human-type OT7T022-expressing CHO cells was added thereto, agitated with a plate mixer and incubated at room temperature for 1.5 hr. Using a cell harvester for 96-well plates, the contents of each well were adsorbed onto a filter unit (GF/C, treated with polyethylene imine) pre-moisturized with washing buffer (50 mM Tris-HCl, pH 7.5). After washing 5 times with the washing buffer, the adsorbate was dried thoroughly. The lower part of the filter unit was sealed. Then, 50 μl of liquid scintillator was added to each well and the upper part of the filter unit was sealed. Radioactivity was measured with a Top Count (Packard), and data were analyzed in triplicate.

[4] = target: T1, human-type OT7T022 (hOT7T022) G …; assay: cell-based or functional assay
[5] = target: G protein-coupled receptor protein rOT7T022L (rat, UniProt Q9EP86 1-432); assay: cell-based or functional assay
G protein-coupled receptor protein rOT7T022L, sequence (Q9EP86 whole entry): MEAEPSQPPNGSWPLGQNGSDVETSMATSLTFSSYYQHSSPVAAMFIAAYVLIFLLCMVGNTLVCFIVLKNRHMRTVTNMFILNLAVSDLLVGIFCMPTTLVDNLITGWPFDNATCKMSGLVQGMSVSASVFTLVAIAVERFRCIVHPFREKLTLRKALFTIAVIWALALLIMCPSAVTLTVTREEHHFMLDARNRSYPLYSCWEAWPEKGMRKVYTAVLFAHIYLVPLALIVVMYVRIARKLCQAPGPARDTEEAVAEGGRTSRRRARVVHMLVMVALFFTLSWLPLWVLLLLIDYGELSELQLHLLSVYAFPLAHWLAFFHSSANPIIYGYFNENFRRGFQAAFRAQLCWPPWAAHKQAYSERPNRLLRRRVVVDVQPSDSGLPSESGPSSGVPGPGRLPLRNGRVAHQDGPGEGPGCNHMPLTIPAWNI

[6] = target: T1, human-type OT7T022 (hOT7T022) G …; assay: cell-based or functional assay; remark: listed apart in the source

human-type OT7T022 (hOT7T022) G protein-coupled receptor protein (human), sequence (Q9GZQ6 whole entry): as the sequence (Q9GZQ6 whole entry) above

| Molecule | IC50 [3] [nM] | cAMP production inhibition EC50 [4] [nM] | ED50, inhibition of intracellular cAMP increase by forskolin treatment [6] [nM] | other results |
| --- | --- | --- | --- | --- |
| hRFRP-3 (28) (second row with this label, last row of Table 1) (peptide) |  |  |  | cAMP production inhibition EC50 [1]: 4.1 nM; IC50 [2]: 1.6 nM |
| SAGATANLPLRSGRNMEVSLVRRVPNLPQRF-NH2 (also called hRFRP-3 (31)) [human-type RFRP-3(31)] | 1.3 | 4.8 |  |  |
| ATANLPLRSGRNMEVSLVRRVPNLPQRF-NH2 (also called hRFRP-3 (28)) [human-type RFRP-3(28)] | 1.1 | 5.1 |  |  |
| PNLPQRF-NH2 [Pro-Asn-Leu-Pro-Gln-Arg-Phe-NH2: hRFRP-3(7)] | 0.62 | 3.2 |  |  |
| NLPQRF-NH2 [Asn-Leu-Pro-Gln-Arg-Phe-NH2: hRFRP-3(6)] | 2.6 | 37 |  |  |
| MPHSFANLPLRF-NH2 [Met-Pro-His-Ser-Phe-Ala-Asn-Leu-Pro-Leu-Arg-Phe-NH2 (MPHSFANLPLRF amide)] |  |  | 4.5 | cAMP production inhibitory effect, IC50 [5]: 0.5 nM |
| SLNFEELKDWGPKNVIKMSTPAVNKMPHSFANLPLRF-NH2 [hRFRP-1-37] |  |  | 21 |  |
| SVTFQELKDWGAKKDIKMSPAPANKVPHSAANLPLRF (ends and bridges not checked) [rRFRP-1-37] |  |  | 30 |  |
| PQRF-NH2 [PQRF amide (Pro-Gln-Arg-Phe-NH2)] |  |  | ≥ 1000 |  |
